Assay results taken from article PMC5549332 (BMC Plant Biology, 2017).

T1: GLO1 + 4 (Oryza sativa, UniProt Q10CE4+Q6YT73)
T1 construct: co-expressed N-terminally 6xHis-tagged GLO1 (pYES3) and GLO4 (pYES2) in Saccharomyces cerevisiae, Ni-IDA purified; GLO4/GLO5 names may be swapped in databases
T1 sequence (Q10CE4 1-369): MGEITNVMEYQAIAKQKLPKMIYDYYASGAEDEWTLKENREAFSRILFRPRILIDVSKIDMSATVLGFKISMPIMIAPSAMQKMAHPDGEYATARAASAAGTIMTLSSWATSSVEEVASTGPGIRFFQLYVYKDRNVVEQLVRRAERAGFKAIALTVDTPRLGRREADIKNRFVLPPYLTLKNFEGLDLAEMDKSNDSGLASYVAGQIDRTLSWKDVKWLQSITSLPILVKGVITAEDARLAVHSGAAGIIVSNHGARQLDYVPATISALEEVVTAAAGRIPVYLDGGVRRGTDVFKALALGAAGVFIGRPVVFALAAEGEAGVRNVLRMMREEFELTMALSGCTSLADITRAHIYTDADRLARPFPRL
T1 sequence (Q6YT73 1-369): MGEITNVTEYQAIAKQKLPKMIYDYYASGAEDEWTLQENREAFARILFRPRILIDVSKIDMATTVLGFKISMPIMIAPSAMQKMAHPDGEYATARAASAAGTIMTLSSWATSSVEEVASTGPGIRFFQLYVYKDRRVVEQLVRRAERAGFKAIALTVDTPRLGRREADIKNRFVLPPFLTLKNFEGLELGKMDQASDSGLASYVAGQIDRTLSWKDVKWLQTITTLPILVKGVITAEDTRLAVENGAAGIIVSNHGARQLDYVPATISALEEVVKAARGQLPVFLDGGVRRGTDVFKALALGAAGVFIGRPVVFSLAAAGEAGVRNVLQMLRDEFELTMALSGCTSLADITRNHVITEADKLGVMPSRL

T2: GLO3 (Oryza sativa, UniProt Q7FAS1)
T2 construct: complete ORF, N-terminal 6xHis tag kept, expressed in Saccharomyces cerevisiae INVSc1, Ni-IDA purified, subunit about 40 kDa
T2 sequence (Q7FAS1 1-367): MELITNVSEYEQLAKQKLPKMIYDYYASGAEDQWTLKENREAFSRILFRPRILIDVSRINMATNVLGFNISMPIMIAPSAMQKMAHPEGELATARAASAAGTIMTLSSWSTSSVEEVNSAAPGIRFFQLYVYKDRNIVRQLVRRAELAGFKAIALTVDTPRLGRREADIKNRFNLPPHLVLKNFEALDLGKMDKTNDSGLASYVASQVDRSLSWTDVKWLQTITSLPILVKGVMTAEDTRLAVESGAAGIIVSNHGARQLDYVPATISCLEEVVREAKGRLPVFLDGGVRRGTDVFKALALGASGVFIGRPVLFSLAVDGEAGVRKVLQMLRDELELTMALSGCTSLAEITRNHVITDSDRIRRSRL

T3: GLO4 (Oryza sativa, UniProt Q6YT73)
T3 construct: gene GLO5; complete ORF, N-terminal 6xHis tag kept, expressed in Saccharomyces cerevisiae INVSc1, Ni-IDA purified, subunit about 40 kDa, homo-oligomer; GLO4/GLO5 names may be swapped in databases, go by printed locus
T3 sequence (Q6YT73 1-369): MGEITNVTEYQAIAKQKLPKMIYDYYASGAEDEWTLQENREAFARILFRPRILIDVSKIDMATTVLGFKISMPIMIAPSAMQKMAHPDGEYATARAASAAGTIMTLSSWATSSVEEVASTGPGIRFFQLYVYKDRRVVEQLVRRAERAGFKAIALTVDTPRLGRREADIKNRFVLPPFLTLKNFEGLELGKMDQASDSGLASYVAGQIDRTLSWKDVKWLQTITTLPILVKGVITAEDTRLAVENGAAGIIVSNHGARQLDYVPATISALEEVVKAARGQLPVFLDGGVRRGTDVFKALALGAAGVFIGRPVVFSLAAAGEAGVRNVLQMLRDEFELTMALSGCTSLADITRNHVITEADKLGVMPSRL

T4: GLO1 (Oryza sativa, UniProt Q10CE4)
T4 construct: complete ORF, N-terminal 6xHis tag kept, expressed in Saccharomyces cerevisiae INVSc1, Ni-IDA purified, subunit about 40 kDa, homo-oligomer
T4 sequence (Q10CE4 1-369): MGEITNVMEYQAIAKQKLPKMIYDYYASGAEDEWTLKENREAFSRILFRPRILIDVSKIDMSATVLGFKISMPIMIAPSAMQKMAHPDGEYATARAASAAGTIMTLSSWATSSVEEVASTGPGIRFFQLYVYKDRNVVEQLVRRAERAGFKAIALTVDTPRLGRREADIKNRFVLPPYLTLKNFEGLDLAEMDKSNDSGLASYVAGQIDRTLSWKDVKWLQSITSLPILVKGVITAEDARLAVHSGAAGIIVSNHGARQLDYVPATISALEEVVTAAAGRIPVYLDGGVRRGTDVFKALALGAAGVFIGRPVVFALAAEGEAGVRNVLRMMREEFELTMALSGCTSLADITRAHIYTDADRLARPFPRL


Assays:
GLO1 + 4 = target: T1, GLO1 + 4; assay: peroxidase-coupled H2O2 assay, […] nm; slope replot of Lineweaver-Burk; assay type: biochemical
GLO3 = target: T2, GLO3; assay: as above; assay type: biochemical
GLO4 = target: T3, GLO4; assay: as above; assay type: biochemical
GLO1 = target: T4, GLO1; assay: as above; assay type: biochemical
purified protein [1] = substrate: O=C(O)CO; assay: purified protein; conditions: pH 7.8, 30 °C, 0.1 mM FMN
purified protein [2] = substrate: C[C@H](O)C(=O)O; assay: purified protein; conditions: pH 7.8, 30 °C, 0.1 mM FMN
purified protein [3] = substrate: O=C(O)[C@H](O)CO; assay: purified protein; assay type: biochemical, Oryza sativa; conditions: pH 7.8, 30 °C, 0.1 mM FMN
purified protein [4] = substrate: O=CC(=O)O; assay: purified protein; assay type: biochemical, Oryza sativa; conditions: pH 7.8, 30 °C, 0.1 mM FMN

Ki (GLO1 + 4)	Ki (GLO3)	Ki (GLO4)	Ki (GLO1)	Molecule	Km (purified protein [1])	Km (purified protein [2])	Km (purified protein [3])	Km (purified protein [4])
5.49 ± 1.04 mM	5.6 ± 1.23 mM	6.34 ± 1.74 mM	4.57 ± 0.93 mM	O=C(O)C(=O)O [oxalate]	–	–	–	–
–	–	–	–	GLO4 (Oryza sativa Japonica Group) (protein, complete ORF, N-terminal 6xHis tag kept, expressed in Saccharomyces cerevisiae INVSc1, Ni-IDA purified, subunit about 40 kDa, homo-oligomer; GLO4/GLO5 names may be swapped in databases, go by printed locus) MGEITNVTEYQAIAKQKLPKMIYDYYASGAEDEWTLQENREAFARILFRPRILIDVSKIDMATTVLGFKISMPIMIAPSAMQKMAHPDGEYATARAASAAGTIMTLSSWATSSVEEVASTGPGIRFFQLYVYKDRRVVEQLVRRAERAGFKAIALTVDTPRLGRREADIKNRFVLPPFLTLKNFEGLELGKMDQASDSGLASYVAGQIDRTLSWKDVKWLQTITTLPILVKGVITAEDTRLAVENGAAGIIVSNHGARQLDYVPATISALEEVVKAARGQLPVFLDGGVRRGTDVFKALALGAAGVFIGRPVVFSLAAAGEAGVRNVLQMLRDEFELTMALSGCTSLADITRNHVITEADKLGVMPSRL	0.613 ± 0.050 mM	4.720 ± 0.291 mM	4.367 ± 0.395 mM	5.983 ± 0.333 mM
–	–	–	–	GLO1 (Oryza sativa Japonica Group) (protein, complete ORF, N-terminal 6xHis tag kept, expressed in Saccharomyces cerevisiae INVSc1, Ni-IDA purified, subunit about 40 kDa, homo-oligomer) MGEITNVMEYQAIAKQKLPKMIYDYYASGAEDEWTLKENREAFSRILFRPRILIDVSKIDMSATVLGFKISMPIMIAPSAMQKMAHPDGEYATARAASAAGTIMTLSSWATSSVEEVASTGPGIRFFQLYVYKDRNVVEQLVRRAERAGFKAIALTVDTPRLGRREADIKNRFVLPPYLTLKNFEGLDLAEMDKSNDSGLASYVAGQIDRTLSWKDVKWLQSITSLPILVKGVITAEDARLAVHSGAAGIIVSNHGARQLDYVPATISALEEVVTAAAGRIPVYLDGGVRRGTDVFKALALGAAGVFIGRPVVFALAAEGEAGVRNVLRMMREEFELTMALSGCTSLADITRAHIYTDADRLARPFPRL	0.499 ± 0.041 mM	5.128 ± 0.315 mM	4.976 ± 0.305 mM	6.505 ± 0.412 mM
–	–	–	–	GLO1 + 4 (Oryza sativa Japonica Group) (protein, co-expressed N-terminally 6xHis-tagged GLO1 (pYES3) and GLO4 (pYES2) in Saccharomyces cerevisiae, Ni-IDA purified; GLO4/GLO5 names may be swapped in databases) chain 1: MGEITNVMEYQAIAKQKLPKMIYDYYASGAEDEWTLKENREAFSRILFRPRILIDVSKIDMSATVLGFKISMPIMIAPSAMQKMAHPDGEYATARAASAAGTIMTLSSWATSSVEEVASTGPGIRFFQLYVYKDRNVVEQLVRRAERAGFKAIALTVDTPRLGRREADIKNRFVLPPYLTLKNFEGLDLAEMDKSNDSGLASYVAGQIDRTLSWKDVKWLQSITSLPILVKGVITAEDARLAVHSGAAGIIVSNHGARQLDYVPATISALEEVVTAAAGRIPVYLDGGVRRGTDVFKALALGAAGVFIGRPVVFALAAEGEAGVRNVLRMMREEFELTMALSGCTSLADITRAHIYTDADRLARPFPRL chain 2: MGEITNVTEYQAIAKQKLPKMIYDYYASGAEDEWTLQENREAFARILFRPRILIDVSKIDMATTVLGFKISMPIMIAPSAMQKMAHPDGEYATARAASAAGTIMTLSSWATSSVEEVASTGPGIRFFQLYVYKDRRVVEQLVRRAERAGFKAIALTVDTPRLGRREADIKNRFVLPPFLTLKNFEGLELGKMDQASDSGLASYVAGQIDRTLSWKDVKWLQTITTLPILVKGVITAEDTRLAVENGAAGIIVSNHGARQLDYVPATISALEEVVKAARGQLPVFLDGGVRRGTDVFKALALGAAGVFIGRPVVFSLAAAGEAGVRNVLQMLRDEFELTMALSGCTSLADITRNHVITEADKLGVMPSRL	0.423 ± 0.038 mM	5.227 ± 0.448 mM	4.511 ± 0.307 mM	4.883 ± 0.321 mM
–	–	–	–	GLO3 (Oryza sativa Japonica Group) (protein, complete ORF, N-terminal 6xHis tag kept, expressed in Saccharomyces cerevisiae INVSc1, Ni-IDA purified, subunit about 40 kDa) MELITNVSEYEQLAKQKLPKMIYDYYASGAEDQWTLKENREAFSRILFRPRILIDVSRINMATNVLGFNISMPIMIAPSAMQKMAHPEGELATARAASAAGTIMTLSSWSTSSVEEVNSAAPGIRFFQLYVYKDRNIVRQLVRRAELAGFKAIALTVDTPRLGRREADIKNRFNLPPHLVLKNFEALDLGKMDKTNDSGLASYVASQVDRSLSWTDVKWLQTITSLPILVKGVMTAEDTRLAVESGAAGIIVSNHGARQLDYVPATISCLEEVVREAKGRLPVFLDGGVRRGTDVFKALALGASGVFIGRPVLFSLAVDGEAGVRKVLQMLRDELELTMALSGCTSLAEITRNHVITDSDRIRRSRL	0.470 ± 0.035 mM	1.104 ± 0.056 mM	2.762 ± 0.311 mM	1.799 ± 0.084 mM
